The text below walks through data of article PMC9491710 (Science Advances, 2022).

Series [1] concerns the molecule itself. Briefly: crystal structure.
Series [2] deals with the molecule itself. Put plainly: crystal structure. The source holds these as a separate data set.
Series [3] concerns the molecule itself. Briefly: cryo-EM structure.
Series [4] deals with the molecule itself. Put plainly: crystal structure. This is another data set of the same source.

B1: isolated DH3 domain (amino acids 1135 to 1434 of BBR47_39880) (domain or fragment, UniProt C0ZGQ6 1135-1434, looked up)
chain: SSTGVGVIHPFLHQNTSDFMEQRFSSMFTGQEFFLSDHVIKGQRVLPSAAYLEMARAAIQQATGGLDSERELEGLRFKNVVWTQPLAVGPEPVQAHIELYPEANGEIVFEIYSDSKQDRDQTTEIVHSQGSAVLCSIPDIPSFDLSVLQEQCSLRTLSAEQCYDAFKKMGVDYGPAHRGIEQILIGQEQVLAKLSLPSSVVKTQGQFGLHPSLLDAALQSSLGLMMATSDFSLILPFALEEMVIVGDCSSSMWALIRYREGSKAGDRVEKFDIDLCDENGNVQVRMKGFSTRKIANVSVR
Take B1: the “stoichiometry N” value in series [1] stood at 2.

B2: isolated KS3 domain (amino acids 532 to 1135 of BBR47_39880) (domain or fragment, UniProt C0ZGQ6 532-1135, looked up)
chain: SPSSVVRDVAIIGLSGRYPQAKNVDEFWNRLKEGKNCISEIPKDRWDWQSFFDEEKGKKESMYTKWGGFIDDMDKFDPLFFQISPKEAEEMDPQERLFLQEAYASIEDAGYTPTTLCESRKVGVFVGVMNGNYPTGATYWSIANRLSYLLNFQGPSVAVDTACSASLTAIHFALESLYSGTSECAIAGGVNLIVDPVHYMKLSALTMLSPSNQCKSFGDQADGFVDGEGVGAIVLKPLDKAIADGDHIYGVIKGSMMNAGGKTNGYTVPNPQAQAQLVADALQRANVHARTVSYLEAHGTGTELGDPIEVAGLTRAFEKDTQDKQFCALGSAKSNIGHCESAAGIAGVTKILLQLKHAQLVPSLHSRTLNPNIDFTKTPFVVQQELAEWRRPIVEINGTTNEYPRIAGISSFGAGGSNAHVIIEEYIPEEQKQSSLKITPQNPAIFVLSAKNAERLYEIVQQLLAFIQEHSLSDEHLADMAYTLQVGRVAMEERIAVIAGTMKELQQKLTAYVKGQEHIADLYRGQVNRNQEMLDILTSDDELEETIARWMERGKYSKLLDLWVKGLSIDWNKLYQEEQPGRISLPTYPFAKESYWTHARSVSS
Consider B2, for which the “stoichiometry N” value in series [2] is 2.

B3: K3DAK4 bimodule core (KS3-DH3-ACP-KS4 fragment of BBR47_39880, amino acids 532 to 2220) (domain or fragment, UniProt C0ZGQ6 532-2220, looked up)
chain: SPSSVVRDVAIIGLSGRYPQAKNVDEFWNRLKEGKNCISEIPKDRWDWQSFFDEEKGKKESMYTKWGGFIDDMDKFDPLFFQISPKEAEEMDPQERLFLQEAYASIEDAGYTPTTLCESRKVGVFVGVMNGNYPTGATYWSIANRLSYLLNFQGPSVAVDTACSASLTAIHFALESLYSGTSECAIAGGVNLIVDPVHYMKLSALTMLSPSNQCKSFGDQADGFVDGEGVGAIVLKPLDKAIADGDHIYGVIKGSMMNAGGKTNGYTVPNPQAQAQLVADALQRANVHARTVSYLEAHGTGTELGDPIEVAGLTRAFEKDTQDKQFCALGSAKSNIGHCESAAGIAGVTKILLQLKHAQLVPSLHSRTLNPNIDFTKTPFVVQQELAEWRRPIVEINGTTNEYPRIAGISSFGAGGSNAHVIIEEYIPEEQKQSSLKITPQNPAIFVLSAKNAERLYEIVQQLLAFIQEHSLSDEHLADMAYTLQVGRVAMEERIAVIAGTMKELQQKLTAYVKGQEHIADLYRGQVNRNQEMLDILTSDDELEETIARWMERGKYSKLLDLWVKGLSIDWNKLYQEEQPGRISLPTYPFAKESYWTHARSVSSSTGVGVIHPFLHQNTSDFMEQRFSSMFTGQEFFLSDHVIKGQRVLPSAAYLEMARAAIQQATGGLDSERELEGLRFKNVVWTQPLAVGPEPVQAHIELYPEANGEIVFEIYSDSKQDRDQTTEIVHSQGSAVLCSIPDIPSFDLSVLQEQCSLRTLSAEQCYDAFKKMGVDYGPAHRGIEQILIGQEQVLAKLSLPSSVVKTQGQFGLHPSLLDAALQSSLGLMMATSDFSLILPFALEEMVIVGDCSSSMWALIRYREGSKAGDRVEKFDIDLCDENGNVQVRMKGFSTRKIANVSVRSEVEVPKASVPLEEEKAIDSSSLMEQATPYFKKLLSSVIKLPANKMEADASLEKYGVDSIVAMQMTKELEKQFGSLPKTLFFEYQTIKELTGYFLENYRENLMHILGMRENAEASLTQESEATMVDEVKAQTERRSKKRKSQRFASLRMETQPPKGALDIAIIGISGRYPQARNIHDFWKNLRDGKDCITEIPKDRWDHSLYFDEAKDKLGKSYSKWGGFIDGVDQFDPLFFHISPREAELMDPQERLFLQCVYETIEDAGYTRETLGKHEGLGGNVGVYVGVMYEEYQLYASAEQALGRALAIAGSPASIANRVSYFCNFHGPSMAVDTMCSSSLTGIHLACHSLQRGECEVAIAGGVNVSIHPNKYLYLSQGKFASSKGRCESFGEGGDGYVPGEGVGAVLLKPLARAIADGDHIYGVIKGSAINHGGKTNGYTVPNPHSQSRVIRRAFEEAGIHPRTVSYIEAHGTGTSLGDPIEIAGLTKTFQEYTKENQFCAIGSAKSNIGHGESAAGIAGLTKILLQMKYKRLVPSLHSRTLNPNIDFSKTPFVVQQELAEWKRPVIEIDGVTREYARIAGISSFGAGGANAHLVIEEYIEAEHRPPSSISSKNPAVIVLSAKNKDRLREQVQRLLSAIREQVLTDNDLAEIAYTLQVGREAMEERFAVIVKSISELEAKLTYYLKDEADSPDLFTGQVKRNKETMDVFAADEDLQQAIDTWITKGKYAKILQMWVQGLIFDWNKLYGDTKPRRISLPAYPFARERYWLPKVESQAIGLTAGEPAYLHPL
On to B3, for which the “stoichiometry N” value in series [3] was 2.

B4: isolated KS4 domain (amino acids 1587 to 2220 of BBR47_39880) (domain or fragment, UniProt C0ZGQ6 1587-2220, looked up)
chain: PPKGALDIAIIGISGRYPQARNIHDFWKNLRDGKDCITEIPKDRWDHSLYFDEAKDKLGKSYSKWGGFIDGVDQFDPLFFHISPREAELMDPQERLFLQCVYETIEDAGYTRETLGKHEGLGGNVGVYVGVMYEEYQLYASAEQALGRALAIAGSPASIANRVSYFCNFHGPSMAVDTMCSSSLTGIHLACHSLQRGECEVAIAGGVNVSIHPNKYLYLSQGKFASSKGRCESFGEGGDGYVPGEGVGAVLLKPLARAIADGDHIYGVIKGSAINHGGKTNGYTVPNPHSQSRVIRRAFEEAGIHPRTVSYIEAHGTGTSLGDPIEIAGLTKTFQEYTKENQFCAIGSAKSNIGHGESAAGIAGLTKILLQMKYKRLVPSLHSRTLNPNIDFSKTPFVVQQELAEWKRPVIEIDGVTREYARIAGISSFGAGGANAHLVIEEYIEAEHRPPSSISSKNPAVIVLSAKNKDRLREQVQRLLSAIREQVLTDNDLAEIAYTLQVGREAMEERFAVIVKSISELEAKLTYYLKDEADSPDLFTGQVKRNKETMDVFAADEDLQQAIDTWITKGKYAKILQMWVQGLIFDWNKLYGDTKPRRISLPAYPFARERYWLPKVESQAIGLTAGEPAYLHPL
As to B4, the “stoichiometry N” value in series [4] is 2.
